Results taken from patent US20080299638A1 (priority 2004, published 2008).
Several values for one entry are separate records, joined by “and”; a condition that tells them apart may be missing. Equal entries are not always repeated.

System: HBeAg
Assay: Suppression of HBeAg secretion in 2.2.15 cells (radioimmunoassay, cpm)
Format: cell-based, hepatitis B virus
Experimental: Grow 200000 cells/ml 2.2.15 cell on 24-well plate, 1 ml per well, incubate for 24 hours under 5% CO2 at 37° C. […] 4 wells per concentration, incubate under 5% CO2 at 37° C., change drug solution every 4 days with the same concentration, retrieve culture medium at day 8, preserve at −20° C. Repeat experiment for 2 batches, test for HBsAg and HBeAg separately. Check cpm value for each wells using γ-counter.
Calculating drug effectiveness: calculate the mean and standard deviation of cpm from the cell control group and groups with different drug concentration, P/N value and percent suppression, IC50 and SI. • (1)
[formula] • (2) Calculate IC50 for drug suppression of antigen:
[formula] • (4) Calculate the cpm differences between HBsAg and HBeAg in different dilutions and control groups by t-test.

B1: Arginase: Pegylated recombinant human arginase (BCT-100); human arginase I with N-terminal six-histidine tag, SEQ ID NO: 3 (protein, listed as Homo sapiens)
chain: MHHHHHHMSAKSRTIGIIGAPFSKGQPRGGVEEGPTVLRKAGLLEKLKEQECDVKDYGDLPFADIPNDSPFQIVKNPRSVGKASEQLAGKVAQVKKNGRISLVLGGDHSLAIGSISGHARVHPDLGVIWVDAHTDINTPLTTTSGNLHGQPVSFLLKELKGKIPDVPGFSWVTPCISAKDIVYIGLRDVDPGEHYILKTLGIKYFSMTEVDRLGIGKVMEETLSYLLGRKKRPIHLSFDVDGLDPSFTPATGTPVVGGLTYREGLYITEEIYKTGLLSGLDIMEVNPSLGKTPEEVTRTVNTAVAITLACFGLAREGNHKPIDYLNPPK
modifications: PEGylated
- Suppression of HBeAg secretion (result in words) (2.2.15 cells, 8 days incubation, TC0 concentration and dilutions): significantly inhibits
- HBeAg (CPM) % suppression (Arginase 1.25 IU/ml, batch 2, day 8): 37.3426%
- HBeAg (CPM) % suppression (Arginase 1.25 IU/ml, two batches average line, day 8): 37.34%
- HBeAg (CPM) % suppression (Arginase 2.5 IU/ml, batch 1, day 8): 61.8387%
- HBeAg (CPM) % suppression (Arginase 2.5 IU/ml, batch 2, day 8): 41.8149%
- HBeAg (CPM) % suppression (Arginase 2.5 IU/ml, two batches average, day 8): 51.83±14.16%
- HBeAg (CPM) % suppression (Arginase 5 IU/ml, batch 1, day 8): 68.3484%
- HBeAg (CPM) % suppression (Arginase 5 IU/ml, batch 2, day 8): 39.5618%
- HBeAg (CPM) % suppression (Arginase 5 IU/ml, two batches average, day 8): 53.96±20.36%
- HBeAg (CPM) % suppression (Arginase 10 IU/ml, batch 1, day 8): 73.0985%
- HBeAg (CPM) % suppression (Arginase 10 IU/ml, batch 2, day 8): 48.3596%
- HBeAg (CPM) % suppression (Arginase 10 IU/ml, two batches average, day 8): 60.73±17.49%
- HBeAg (CPM) % suppression (Arginase 20 IU/ml, batch 1, day 8): 74.9808%
- HBeAg (CPM) % suppression (Arginase 20 IU/ml, batch 2, day 8): 62.4033%
- HBeAg (CPM) % suppression (Arginase 20 IU/ml, two batches average, day 8): 68.69±8.89%
- HBeAg (CPM) % suppression (Arginase 20 IU/ml, two batches average, day 8, listed as pegylated recombinant arginase): 68.69±8.89%
- HBeAg IC50 (batch 1, day 8): 6.69 IU/ml
- HBeAg IC50 (batch 2, day 8): 6.05 IU/ml
- HBeAg IC50 (two batches average, day 8): 6.37 ± 0.45 IU/ml and 6.37 IU/ml
- HBeAg IC50 (two batches average, day 8, listed as pegylated recombinant arginase): 6.37±0.45 IU/ml
